From publication PMC11420955
Where a chain is given by its changes, count along the chain named. In names and notes the source's numbering stands.

Columns and labels:
McjB = target: T1, McjB (UniProt Q9X2V8)
T1 sequence: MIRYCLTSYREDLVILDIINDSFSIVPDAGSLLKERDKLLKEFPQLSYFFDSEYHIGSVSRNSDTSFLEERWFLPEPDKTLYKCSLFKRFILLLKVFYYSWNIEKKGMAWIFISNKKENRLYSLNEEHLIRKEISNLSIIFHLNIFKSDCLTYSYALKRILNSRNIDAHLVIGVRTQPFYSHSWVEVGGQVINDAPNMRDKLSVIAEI

McjB M108T = McjB M108T (UniProt Q9X2V8)
McjC K337E = McjC K337E (UniProt Q9X2V9)
McjC S440Y = McjC S440Y (UniProt Q9X2V9)
McjC = target: T2, McjC (UniProt Q9X2V9)
T2 sequence: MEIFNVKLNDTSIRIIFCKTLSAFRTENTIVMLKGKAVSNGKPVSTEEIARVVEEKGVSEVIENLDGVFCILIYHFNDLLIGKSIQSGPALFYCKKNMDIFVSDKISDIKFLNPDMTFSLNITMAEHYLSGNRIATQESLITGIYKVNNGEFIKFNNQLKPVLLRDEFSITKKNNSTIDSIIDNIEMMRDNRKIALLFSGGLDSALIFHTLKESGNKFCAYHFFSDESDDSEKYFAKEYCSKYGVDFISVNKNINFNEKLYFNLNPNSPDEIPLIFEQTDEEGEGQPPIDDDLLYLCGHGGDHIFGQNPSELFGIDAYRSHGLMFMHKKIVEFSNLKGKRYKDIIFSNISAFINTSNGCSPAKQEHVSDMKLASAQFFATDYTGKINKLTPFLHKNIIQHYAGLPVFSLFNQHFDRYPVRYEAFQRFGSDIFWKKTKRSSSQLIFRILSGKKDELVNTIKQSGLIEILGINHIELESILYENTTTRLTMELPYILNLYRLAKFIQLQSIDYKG

A MccJ25 production yield relative to WT (HPLC peak area of E. coli culture extract) (McjB) of 1% and a MccJ25 production yield relative to WT (HPLC peak area of E. coli culture extract; synthetic rescue pair TM) (McjB M108T) of 5.4% were found for McjA T-2M (peptide) in this work.

A MccJ25 production yield relative to WT (HPLC peak area of E. coli culture extract) (McjC K337E) of 8.1% and a MccJ25 production yield relative to WT (HPLC peak area of E. coli culture extract) (McjC S440Y) of 2.4% were found for Microcin J25 precursor peptide McjA in this work.

A MccJ25 production yield relative to WT (HPLC peak area of E. coli culture extract) (McjC) of 41% was found for “Split McjB S80/81 (B1 1-80 and B2 81-208 as separate proteins) (from UniProt Q9X2V8 1-80; Q9X2V8 81-208) (complex)” in this work.

B1: McjB circular permutant CP80/81 (enzyme)
chain: LYKCSLFKRFILLLKVFYYSWNIEKKGMAWIFISNKKENRLYSLNEEHLIRKEISNLSIIFHLNIFKSDCLTYSYALKRILNSRNIDAHLVIGVRTQPFYSHSWVEVGGQVINDAPNMRDKLSVIAEIGGSSGGMIRYCLTSYREDLVILDIINDSFSIVPDAGSLLKERDKLLKEFPQLSYFFDSEYHIGSVSRNSDTSFLEERWFLPEPDKT
A MccJ25 production yield relative to WT (HPLC peak area of E. coli culture extract) (McjC) of 4.4% was found for B1 in this work.

B2: McjB circular permutant CP60/61 (enzyme)
chain: RNSDTSFLEERWFLPEPDKTLYKCSLFKRFILLLKVFYYSWNIEKKGMAWIFISNKKENRLYSLNEEHLIRKEISNLSIIFHLNIFKSDCLTYSYALKRILNSRNIDAHLVIGVRTQPFYSHSWVEVGGQVINDAPNMRDKLSVIAEIGGSSGGMIRYCLTSYREDLVILDIINDSFSIVPDAGSLLKERDKLLKEFPQLSYFFDSEYHIGSVS
A MccJ25 production yield relative to WT (HPLC peak area of E. coli culture extract) (McjC) of 0.4% was found for B2 in this work.

B3: McjB with a C-terminal MBP fusion (enzyme)
chain: T1 sequence
A MccJ25 production yield relative to WT (HPLC peak area of E. coli culture extract; McjB-MBP in an otherwise native gene cluster) (McjC) of 61% was found for B3 in this work.

B4: McjB F67R (enzyme)
chain: T1 sequence with F67R
A MccJ25 production yield relative to WT (HPLC peak area of E. coli culture extract) (McjC) of 0.6% was found for B4 in this work.

B5: McjC with a C-terminal MBP fusion (enzyme)
chain: T2 sequence
A MccJ25 production yield relative to WT (HPLC peak area of E. coli culture extract; McjC-MBP in an otherwise native gene cluster) (McjB) of 86% was found for B5 in this work.
